Data on 41 sequences can be found in the nanobody polyreactivity screen of Harvey et al. (2022).

The nature of this series: yeast display, Sf9 membrane polyspecificity reagent, FACS + sequencing; frameworks hold sequencing errors. The procedure, abridged:
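Polyreactivity labels are assigned by the sorting gate from which each nanobody was recovered. The gates were low and high (top ~1%), set on anti-HA fluorescence for expression and streptavidin fluorescence for reagent binding. Before sorting, galactose-induced (36–48 hours) yeast display cells were stained for 1 hour at 4 °C with 10% biotinylated, detergent-solubilized Sf9 membrane reagent.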
For “QVQLVESAGGLVKEGGSLRLSCAASGRTFGVNAMGRYRQAPGKERELVAAITWSGDSTYYADSVKGRFTISRDNAKNTVYLQMNSLKPEDTAVYYCAKKSSLFKHVVRYAYWGQGNQVTVSS”, the “polyreactivity (PSR sort gate)” value is “low polyreactivity”.

On to “QVQLVESAGGLVQAGASLRLSCAPSGSIFRINAMGWYRQAPGKERELVAAISTRSGRTYYADSVKGRFTISRDNAKNTVYLQMYSLNPEDTAVYYCARYRTQASGYGGYDYWGQGTQATVSS”, for which the “polyreactivity (PSR sort gate)” value is “high polyreactivity”.

As to “QVQLVESAGGLVQAGCSLRLSCAASGSPFGYYAMGWYRQAPGKVRELVAAISRSGVSTYYADSVKGRFTISRDNAKNTFYLQMNSLKPEDTAVYYCDRVRSTPGSYNRFYYWGQGTQVTVSS”, the “polyreactivity (PSR sort gate)” value is listed as “high polyreactivity”.

Consider “QVQLVESAGGLVQAGGSIRLSCAASGNIFFVYDMGWYRQAPGKERELVAAISWSGGSTYADSVKGRFTISRDNAKNTVYLQMNSLKPEDTAVYYWAASYGVYWYSFWYHVAWLDYWGQGTQVTVSS”, for which the “polyreactivity (PSR sort gate)” value is on record as “low polyreactivity”.

As for “QVQLVESAGGLVQAGGSLPLSCAASGRTFQTNLMGWYRQAPGKERELVAAITLSGGSTNYADSVKVRFTISRDNAKKTVYLQMNSLKPEDTAVYYCNAERRYRHQLTPHYEYDYWGKGTQVTVSS”, the “polyreactivity (PSR sort gate)” value was “low polyreactivity”.

On to “QVQLVESAGGLVQAGGSLRLSCAASGFIFPTYAMGWYRQAPGKERELVAAITTGGGSTYYADSVKGRFTISRDNAKNTVYLQMNSLKPEDTAVYYCAAEYVAQAGYGEDYWGQGTQVTVSS”, for which the “polyreactivity (PSR sort gate)” value is reported as “low polyreactivity”.

As to “QVQLVESAGGLVQAGGSLRLSCAASGFIFRYNTMGWYRQAPGKERELVATINRSGGSTYYADSVKGRFTISRDNAKNTVYLQMNSLKPEDTAVYYCAAVSLQPYYIAGATWDGDYWGQGTQVTVSS”, the “polyreactivity (PSR sort gate)” value is listed as “high polyreactivity”.

With “QVQLVESAGGLVQAGGSLRLSCAASGFIFSRNAMGWYRQAPGKERELVAAISGTGGRTYYADSVKGRFTLSRDNAKNTVYLQMNSLKTEDTAVYYCAADKRIGGFGYWGQGTQVTVSS”, the “polyreactivity (PSR sort gate)” value is “high polyreactivity”.

With “QVQLVESAGGLVQAGGSLRLSCAASGFTFRSNAIGWYRQAPGKQRELVAAITSRGGSTYYADSVKGRFTISRDNAKNTVYLQMNSLKPVDTAVYYCAAEGRSRKFDYWGQGTQVTVSS”, the “polyreactivity (PSR sort gate)” value is given as “high polyreactivity”.

Regarding “QVQLVESAGGLVQAGGSLRLSCAASGFTFYGYAMGAYSQAPGKERELVAAITSGGSTNYADAVKGRFTISRDNAKNTVYVQLNSLKPEDTAVYHCAAVWVANTARYSDTFGYWGQGTQVTVSS”, the “polyreactivity (PSR sort gate)” value is “high polyreactivity”.

As to “QVQLVESAGGLVQAGGSLRLSCAASGITFNDNAMGGYRQAPGKERELVAAINSGNGTDYEDSVKGRFTISRDNAKNTVYLQMNSLKPEDTAVYYCATEGYVQGDLGYLYTRYAFYYWGQGTQVTVSS”, the “polyreactivity (PSR sort gate)” value was “low polyreactivity”.

“QVQLVESAGGLVQAGGSLRLSCAASGLTQASYAMGWYRQAPGKERELVAAISRRSGRTYYADSVKGRFTISRDNAKNTVYLQMNSLKPVDTAVYYCNRGYTAQVYTEFDYWGQGTQVTVSS”: the “polyreactivity (PSR sort gate)” value is recorded as “low polyreactivity”.

In the case of “QVQLVESAGGLVQAGGSLRLSCAASGLTYYFYPMGWYRQAPGKETELVAAINYDDGSTYYADSVKGRFTISRDNAKNTVYLQMNSLKPEDTAVYYCAADRDFRTPRLYYWGQGTQVTVSS”, the “polyreactivity (PSR sort gate)” value is listed as “low polyreactivity”.

Turning to “QVQLVESAGGLVQAGGSLRLSCAASGNIFSYYAMGWYRQAPGKERELVAAISRRGTNTYYADSVKGRFTISRDNAKNTVYLQMKSLKPEDTAVYYCARYGPYQSSYHYDYWGQGTQVTVSS”, the “polyreactivity (PSR sort gate)” value is recorded as “high polyreactivity”.

“QVQLVESAGGLVQAGGSLRLSCAASGNTFATYAMGWYRQAPGKERELVAAITWTGGRTRYADSVKVRFTISRDNAKNTVYLPMNSLKPEDTAVYYCAAKRYDTTYDSWGQGTQVTVSS”: the “polyreactivity (PSR sort gate)” value is reported as “high polyreactivity”.

Consider “QVQLVESAGGLVQAGGSLRLSCAASGRIFSAYAMRWYRQARGKERQLVAAITWSGANTDYADSVKGRFTISRDNAKNTVYLQMTSLKPEDTAVYYCNASFGRDSAYDYWGQGTQVTVSS”, for which the “polyreactivity (PSR sort gate)” value is on record as “low polyreactivity”.

With “QVQLVESAGGLVQAGGSLRLSCAASGRIFSFNAMGWDRQAPGKERELVATIRTDGTTNYADSVKGRFTISRDNAKNTVYLQMNSLKPEDTAVYYCATDSGWSTYDYWGQGTQVTVSS”, the “polyreactivity (PSR sort gate)” value is on record as “high polyreactivity”.

For “QVQLVESAGGLVQAGGSLRLSCAASGRTFKYYAMGWYRQAPGKERELVAAISRSGGSTYADSVKGRFTISRDNAKNTVYLQMNSLKPDETAVYYCAAYSGVGYLWFDYWGQGTQVTVSS”, the “polyreactivity (PSR sort gate)” value is listed as “low polyreactivity”.

On to “QVQLVESAGGLVQAGGSLRLSCAASGRTFVHYAIGWYRPAPAKERELVAAISWSGGSTYYADSVKGRFTISRDNAKNTGYLQMNSLKPEDTAVYYCNAGGFAPGRYGEFDYWGQGTQVTVSS”, for which the “polyreactivity (PSR sort gate)” value is “low polyreactivity”.

Turning to “QVQLVESAGGLVQAGGSLRLSCAASGSIFGLYAMGWSRQAPGKDRELVAAITSAGSTYYADSVKGRFTISRDNAKNTVYLQMNTLKPEDTAVYYCAARGFYQFPSYYYWGKGTQVTVSS”, the “polyreactivity (PSR sort gate)” value was “high polyreactivity”.

Regarding “QVQLVESAGGLVQAGGSLRLSCAASGSIFHYYAMGWYRQAPGKERELVAAINSSGGSRTYYADSVKGRFTISRDKAKNTVYLQMNSLKPEDTAVYYCAADYRVVWRAYDYWGQGTQVTVSS”, the “polyreactivity (PSR sort gate)” value is “low polyreactivity”.

For “QVQLVESAGGLVQAGGSLRLSCAASGSIFYRNVMAWYRQAPGQERELVAAITWSGGSTYYADSVKGRFTISRDNAKNTVYLQMNSLKPEDTAVYFCAAASKATYRGKVSGYYYWGQGTQVTVSS”, the “polyreactivity (PSR sort gate)” value was “high polyreactivity”.

“QVQLVESAGGLVQAGGSLRLSCAASGSNDTNAMGWYRQEPWKERELVADITSGTPTYADSVKGRFTISRDNAKNTVFLQMNSLKPEDTAVYYCAADIPPWCGDYWGQGTQVTVSS”: the “polyreactivity (PSR sort gate)” value is given as “low polyreactivity”.

As for “QVQLVESAGGLVQAGGSLRLSCAASGSSLGYYAMGWYRQAPGKERELVADIDNGTSTYYADSVKGRFTISRDNAKNTVYLQMNSLKQEDTAVYYCAADYYSRYLQSYYWGQGTQVTVSS”, the “polyreactivity (PSR sort gate)” value is listed as “low polyreactivity”.

As for “QVQLVESAGGLVQAGGSLRLSCAASGSTFGANAMGWYRQAPGKEREYVAAISRSGVRTYYADSVKGRFTISRDNAKNTVYLQMNSLKPEDTAVYYCAADGYWWTYTRYDYWGQGTQVTVSS”, the “polyreactivity (PSR sort gate)” value was “low polyreactivity”.

In the case of “QVQLVESAGGLVQAGGSLRLSCAASGYTFKLYAMGWSRQAPGKERELVAAIRQRGGTTYYADSVKGRVTISRDNAKNTVYLQMNSLKPEDTAVYYCAVRFYLPNANGGYYYWGQGTQVTVSS”, the “polyreactivity (PSR sort gate)” value is “high polyreactivity”.

With “QVQLVESAGGLVQAGGSLRLSCAPSGRTFYGNAMGWYRQAPGTERELVAAISSRGGSTYYADSVKGRFTISRDNANNTVYLQMNSLKPEDTAVYYCNVANGLSQVYRYNYWGQGTQVTVSS”, the “polyreactivity (PSR sort gate)” value was “high polyreactivity”.

Take “QVQLVESAGGLVQAGGSLRLSCASSGFTFKANAMGWYRQAPGKERELVAAISRRGSSTYYADSVKGRFTISRDNAKNTVYLQMNSLKPEDTAVYYCNTKPRAGRTKLGYWGQGTQVTVSS”: the “polyreactivity (PSR sort gate)” value is “high polyreactivity”.

Consider “QVQLVESAGGLVQAGGSLRLSCPASGLTFGSYALGWYRQAPGKEREFVAAISWRGGSTYYADSVKGRFTISRDNAKNTVYLQMNSLKPEDTAVYYCAAPVTYGGSPYKYYYWGQGTQVTVSS”, for which the “polyreactivity (PSR sort gate)” value was “high polyreactivity”.

For the sequence “QVQLVESAGGLVQAGGSLRLSCPASGRIFSIYGMGWYRQAPGKERELVAVISGSVGITYYADSVKGRFTISRDNAKNTVYLQMNSLKPEDTAVYFCNAKVRRRKYDYWGQGTQVTVSS”, the “polyreactivity (PSR sort gate)” value is listed as “high polyreactivity”.

Take “QVQLVESAGGLVQAGGSLRLSCPASGRTFFPYAMGWYRQPPGQEREFVAAITNTDDSTYYADSVKGRFTISRDNAKNTVYLQMNSLKPEDTAVYYCNAGDTQIRFYYWGQGSQVTVSS”: the “polyreactivity (PSR sort gate)” value is “low polyreactivity”.

Take “QVQLVESAGGLVQAGGSLRLSFAASGFTFAKYAMGWYRQAPGKERELVAGISRRGGSTYYADSVKGRFTISRDNAKNTVYLQMNSLKPEDTAVYYCNADLVRPGYYRYDYWGQGTQVTVSS”: the “polyreactivity (PSR sort gate)” value is “high polyreactivity”.

As for “QVQLVESAGGLVQAGGSLRLTCAASGLTFRVFAMGWYRQAPGKERELVAAISSRGGSTYYADSVKGRFTISRDNAKYTVYLQMNSLKPEDTAVYDCYARGQGGYWGQGTQVTVSS”, the “polyreactivity (PSR sort gate)” value was “high polyreactivity”.

Consider “QVQLVESAGGLVQAGGSLRLTCAASGRTYFPYAMGLYRQAPGKERELVAAITWSATTTYYADSVKGRFTISRDNAKNTVYLQMISLKPEDTAVYYCNARGDYWGQGTQVTVSS”, for which the “polyreactivity (PSR sort gate)” value is “low polyreactivity”.

In the case of “QVQLVESAGGLVQAGGSLSLSCAASGGTFSTNAMGWYRQAPGQERELVAAISLSGGRTYADSVKGRFTISLDNAKNTVYLQMNSLKPEDTAVYYCNADSAGITRARSELDYWGQGTQVTVSS”, the “polyreactivity (PSR sort gate)” value is reported as “low polyreactivity”.

“QVQLVESAGGLVQAGGSLSLSCAASGSTFASYAMGWYRQAPGKEREFVAAITRSGTSTYYADSVKGRFTISRDNAKNTVYLQMNSLKPEDTAVYYCNATRRTVGFGYWGQGTQVTVSS”: the “polyreactivity (PSR sort gate)” value was “high polyreactivity”.

In the case of “QVQLVESAGGLVQAGRSHRLSFAASGSIFYHNAMGWYRQAPGKERELVAAISGRGGSTYYADSVKGRFTISRDNAKNTVYLQMNSLKPEDTAVYYCAADARYQNGGLYYWGQGTQVTVSS”, the “polyreactivity (PSR sort gate)” value was “high polyreactivity”.

As to “QVQLVESAGGLVQAGRSLRLSCAASGRNFLGNDMGWYRQAPGKERELVAAISYGDGSTYYADSVKGRFTISRDNAKNTVYLQMNSLKPEDTAVYYCAAERYTIPPIYDYWGQGTQVTVSS”, the “polyreactivity (PSR sort gate)” value is reported as “low polyreactivity”.

As for “QVQLVESAGGLVQAGVSLRISCAASGSTIRHYAMGWYRQAPRKERELVAAISSGARTYYADSEKGRFTISRDNAKNTVYLQMNSLKPEDTAVYYRAARYNGYANPYYYWGQGTQVTVSS”, the “polyreactivity (PSR sort gate)” value was “high polyreactivity”.

As for “QVQLVESAGGLVQAGVSLRLSCAASGFTSSRNAMGWYRQAPGKERELVATISSGGDTYYADSVKGRFTISRDNAKNTVYLQMNTLKPEDTAVYYCNKDPLYAWGYDYWGQGTQVTVSS”, the “polyreactivity (PSR sort gate)” value is “low polyreactivity”.

“QVQLVESAGGLVQARGSLRLSCAASGINFDWYTMGWYRKAPGKERELVAAISWRGGRTYYADSVKGRFTISRDNAKNTVYLQMNSLKPEDTAVYYCAAEAPVQPFYVFNTGIYELDYWGQGTQVTVSS”: the “polyreactivity (PSR sort gate)” value is “low polyreactivity”.
